# Publication PMC6265731
# B1: Potato leafroll virus P17 movement protein (natural protein)
# chain: MSMVVYNNQECEEGNPFAGALTEFSQWLWSRPLGNPGAEDAEEEAIAAQEELEFPEDEAQARHSCLQRTTSWATPKEVSPSGRVYQTVRHSRMEYSRPTMSIRSQASYFSSSARPLPPPPVPSLMSWTPIAKYHPSSPTSTSSKLRRAAPKLIKRG
# B2: Potato leafroll virus P1 polyprotein (natural protein)
# chain: KEAGFLHPAFNFRGTSTMSASSGDYSAAPTPLYKSWALPSSLNLTTQPPPPLTDRSYYELVQALTSKMRLDCQTVGDMTWRHLSEMLFASWNSVKEVSLKAASVTLWAIINIWFGLYWTLARLITLFLWTFSIEALCLILLGCITSLIYKGALSLSEHLPVFLFMSPLKIIWRAAFSKRNYKNERAVEGYKGFSVPQKPPKSAVIELQHENGSHLGYANCIRLYSGENALVTAEHCLEGAFATSLKTGNRIPMSTFFPIFKSARNDISILVGPPNWEGLLSVKGAHFITADKIGKGPASFYTLEKGEWMCHSATIDGAHHQFVSVLCNTGPGYSGTGFWSSKNLLGVLKGFPLEEECNYNVMSVIPSIPGITSPNYVFESTAVKGRVFSDEAVKELEREASEAVKKLARFKSLTDKNWADDYDSDEDYGLEREAATNAPAEKTAQTNSAEKTAPSTSAEKTALTNKPLNGQAAPSAKTNGNSDIPDAATSAPPMDKMVEQIITAMVGRINLSEIEEKIVSRVSQKALQKPKQKKRGRRGGKNKQNSLPPTSTQSTSGAPKKEAAPQASGSAGTSRATTTPAPEAKPSGGKNSAKFTPSWRIKQQDSAGQKPDLKLNSKA
# What was measured:
# Test in all cases: affinity purification with mass spectrometry
# [1] = molecular target: WT PLRV (assembled virions and/or soluble structural proteins CP and RTP, as captured by the α-PLRV antibody) (Potato leafroll virus)
# [2] = molecular target: non-incorporated (soluble) form of the PLRV readthrough protein expressed by the ΔCP mutant (Potato leafroll virus)
# [3] = molecular target: ΔRTC PLRV (virions and soluble structural proteins of the mutant whose RTD lacks the last 218 C-terminal residues) (Potato leafroll virus)
molecule,measurement,setting,value
Potato leafroll virus P3a protein (from UniProt P0DTK2 1-45) (natural protein),fold decrease of P3a (normalised to CP) in ΔP17 APs against WT APs,[1],3.4 fold
B1,fold increase of P17 (normalised to CP) in ΔCP APs against WT APs,[2],1.8 fold
B2,fold increase of P1 (normalised to CP) in ΔRTC APs against WT APs,[3],1.8 fold
